Measured values from publication PMC11419001 (bioRxiv, 2024).

Target: ribosomal protein uS10 of the stalled 70S ribosome (E. coli, UniProt P0A7R5 1-103)
Experiment: cryo-EM structure

binding result: binds
B1: HrpA (E. coli DExH-box RNA helicase), preparation for cryo-EM (enzyme)
chain: MTEQQKLTFTALQQRLDSLMLRDRLRFSRRLHGVKKVKNPDAQQAIFQEMAKEIDQAAGKVLLREAARPEITYPDNLPVSQKKQDILEAIRDHQVVIVAGETGSGKTTQLPKICMELGRGIKGLIGHTQPRRLAARTVANRIAEELKTEPGGCIGYKVRFSDHVSDNTMVKLMTDGILLAEIQQDRLLMQYDTIIIDEAHERSLNIDFLLGYLKELLPRRPDLKIIITSATIDPERFSRHFNNAPIIEVSGRTYPVEVRYRPIVEEADDTERDQLQAIFDAVDELSQESHGDILIFMSGEREIRDTADALNKLNLRHTEILPLYARLSNSEQNRVFQSHSGRRIVLATNVAETSLTVPGIKYVIDPGTARISRYSYRTKVQRLPIEPISQASANQRKGRCGRVSEGICIRLYSEDDFLSRPEFTDPEILRTNLASVILQMTALGLGDIAAFPFVEAPDKRNIQDGVRLLEELGAITTDEQASAYKLTPLGRQLSQLPVDPRLARMVLEAQKHGCVREAMIITSALSIQDPRERPMDKQQASDEKHRRFHDKESDFLAFVNLWNYLGEQQKALSSNAFRRLCRTDYLNYLRVREWQDIYTQLRQVVKELGIPVNSEPAEYREIHIALLTGLLSHIGMKDADKQEYTGARNARFSIFPGSGLFKKPPKWVMVAELVETSRLWGRIAARIDPEWVEPVAQHLIKRTYSEPHWERAQGAVMATEKVTVYGLPIVAARKVNYSQIDPALCRELFIRHALVEGDWQTRHAFFRENLKLRAEVEELEHKSRRRDILVDDETLFEFYDQRISHDVISARHFDSWWKKVSRETPDLLNFEKSMLIKEGAEKISKLDYPNFWHQGNLKLRLSYQFEPGADADGVTVHIPLPLLNQVEESGFEWQIPGLRRELVIALIKSLPKPVRRNFVPAPNYAEAFLGRVKPLELPLLDSLERELRRMTGVTVDREDWHWDQVPDHLKITFRVVDDKNKKLKEGRSLQDLKDALKGKVQETLSAVADDGIEQSGLHIWSFGQLPESYEQKRGNYKVKAWPALVDERDSVAIKLFDNPLEQKQAMWNGLRRLLLLNIPSPIKYLHEKLPNKAKLGLYFNPYGKVLELIDDCISCGVDKLIDANGGPVWTEEGFAALHEKVRAELNDTVVDIAKQVEQILTAVFNINKRLKGRVDMTMALGLSDIKAQMGGLVYRGFVTGNGFKRLGDTLRYLQAIEKRLEKLAVDPHRDRAQMLKVENVQQAWQQWINKLPPARREDEDVKEIRWMIEELRVSYFAQQLGTPYPISDKRILQAMEQISG
